The values that follow come from patent US20220073922.

Data set [1] concerns the target T1, Angiopoietin-2 (Ang2) (Homo sapiens) (UniProt O15123).
T1 sequence: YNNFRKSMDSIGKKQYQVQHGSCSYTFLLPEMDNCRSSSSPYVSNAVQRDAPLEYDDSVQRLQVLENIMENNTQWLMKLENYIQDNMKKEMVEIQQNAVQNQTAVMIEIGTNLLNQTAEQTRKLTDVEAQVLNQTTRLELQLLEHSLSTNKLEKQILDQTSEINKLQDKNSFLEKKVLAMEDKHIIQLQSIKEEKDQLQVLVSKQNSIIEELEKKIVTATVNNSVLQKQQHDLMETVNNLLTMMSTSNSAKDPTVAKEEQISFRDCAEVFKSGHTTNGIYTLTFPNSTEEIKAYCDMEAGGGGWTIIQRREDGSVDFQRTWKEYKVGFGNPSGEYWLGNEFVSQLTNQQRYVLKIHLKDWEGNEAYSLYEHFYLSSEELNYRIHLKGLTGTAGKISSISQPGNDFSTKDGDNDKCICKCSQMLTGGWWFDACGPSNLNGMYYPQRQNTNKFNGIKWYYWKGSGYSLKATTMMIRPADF
The experiment in a line: flow. The note with it: 2'-F all nucleotides.

In data set [2] the target is T2, VEGF-121 (VEGFA isoform 121) (Homo sapiens) (UniProt P15692).
T2 sequence: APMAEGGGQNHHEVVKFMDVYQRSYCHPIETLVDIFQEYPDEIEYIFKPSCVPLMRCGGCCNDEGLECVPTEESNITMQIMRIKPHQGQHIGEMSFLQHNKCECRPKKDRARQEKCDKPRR
Nature of the data set: flow. The note with it: 2'-F all nucleotides.

Data set [3] relates to T3, VEGF (isoform not given) (Homo sapiens), P15692-9.
T3 sequence: T2 sequence
Nature of the data set: competition. The conditions noted are these: 2'-F all positions; blocks VEGF-VEGFR2; isoform not stated.

[4] abbreviates: 1 hexaethylene glycol linker between aptamers [2'-F at all nucleotides 1-86, 1 hexaethylene glycol linker (H) between 38 and 39 left out].
The mark [5] stands for this setting: 2 hexaethylene glycol linkers between aptamers [2'-F at all nucleotides 1-86, 2 hexaethylene glycol linkers (HH) between 38 and 39 left out].
The mark [6] stands for this setting: 3 hexaethylene glycol linkers between aptamers [2'-F at all nucleotides 1-86, 3 hexaethylene glycol linkers (HHH) between 38 and 39 left out].
[7] abbreviates: 4 hexaethylene glycol linkers between aptamers [2'-F at all nucleotides 1-86, 4 hexaethylene glycol linkers (HHHH) between 38 and 39 left out].
Where [8] appears, read: 5 hexaethylene glycol linkers between aptamers [2'-F at all nucleotides 1-86, 5 hexaethylene glycol linkers (HHHHH) between 38 and 39 left out].
Where [9] appears, read: 6 hexaethylene glycol linkers between aptamers [2'-F at all nucleotides 1-86, 6 hexaethylene glycol linkers (HHHHHH) between 38 and 39 left out].

On to “CGCAUAGAUAAGCCAACAAACAUUCUCUGUUAGUAUUUUCUGCG [AMS0525.8]”, for which, in data set [1] (one internal hexaethylene glycol linker (H) [2'-F at 1-44, hexaethylene glycol linker H (left out) between C21 and A22], PBSMCT, 37 C), the Kd came out at 0.085 nM.

In data set [1] (one internal hexaethylene glycol linker (H) [2'-F at 1-42, hexaethylene glycol linker H (left out) between A20 and U21], PBSMCT, 37 C), “CGCAUAGAUAAGCCAACAAAUUCUCUGUUAGUAUUUUCUGCG [AMS0525.7]” came in with a Kd of 0.093 nM.

Turning to “CGCUAGAUGGCUAACACUAUUGUGGAGAUGCACUAGCGCGCAUAGAUAAGCCAACAAACGUACAUUCUCUGUUAGUAUUUUCUGCG [AMSB103.1]”, the Kd came to 0.041 nM in data set [2] (setting [4]) and 0.026 nM in data set [1] (setting [4]).

Consider “CGCUAGAUGGCUAACACUAUUGUGGAGAUGCACUAGCGCGCAUAGAUAAGCCAACAAACGUACAUUCUCUGUUAGUAUUUUCUGCG [AMSB103.2]”, for which the Kd is 0.038 nM in data set [2] (setting [5]) and 0.034 nM in data set [1] (setting [5]). As for “CGCUAGAUGGCUAACACUAUUGUGGAGAUGCACUAGCGCGCAUAGAUAAGCCAACAAACGUACAUUCUCUGUUAGUAUUUUCUGCG [AMSB103.3]”, the Kd was 0.036 nM in data set [2] (setting [6]) and 0.031 nM in data set [1] (setting [6]). Turning to “CGCUAGAUGGCUAACACUAUUGUGGAGAUGCACUAGCGCGCAUAGAUAAGCCAACAAACGUACAUUCUCUGUUAGUAUUUUCUGCG [AMSB103.4]”, the Kd is 0.041 nM in data set [2] (setting [7]) and 0.032 nM in data set [1] (setting [7]). On to “CGCUAGAUGGCUAACACUAUUGUGGAGAUGCACUAGCGCGCAUAGAUAAGCCAACAAACGUACAUUCUCUGUUAGUAUUUUCUGCG [AMSB103.5]”, for which the Kd in data set [2] (setting [8]) stood at 0.038 nM; in data set [1] (setting [8]), 0.027 nM. Consider “CGCUAGAUGGCUAACACUAUUGUGGAGAUGCACUAGCGCGCAUAGAUAAGCCAACAAACGUACAUUCUCUGUUAGUAUUUUCUGCG [AMSB103.6]”, for which the Kd in data set [2] (setting [9]) came to 0.039 nM; in data set [1] (setting [9]), 0.034 nM. As for “CGCUAGAUGGCUAACACUAUUGUGGAGAUGCACUAGCGCGCAUAGAUAAGCCAACAAACGUACAUUCUCUGUUAGUAUUUUCUGCG [AMSB103]”, in data set [3], the IC50 was less than 0.1 nM.

For orientation: Kd means the free concentration of one partner at which half of the binding sites on the other are occupied at equilibrium, for simple one-to-one binding. A higher Kd goes with a looser complex. As a reminder, the IC50 is the midpoint of a concentration-inhibition curve.
